Like-named read-outs stand apart in the source and are kept apart here.
Key:
A431-CCK2R cells [1] = settings: ~100 nM, 24 h treatment, 12 days colony formation, mean ± SD of four independent experiments in triplicate
Description: After this treatment, the medium was aspirated and the cells were gently washed twice with phosphate-buffered saline (PBS) and then incubated at 37 °C for 12 days to allow colony formation. At the end of the incubation period, the culture medium was removed, and the wells were gently rinsed twice with PBS.
Colonies were fixed by adding 1 mL of a 3:1 methanol–glacial acetic acid solution to each well and incubated for 20 min at room temperature in a chemical hood. The solution was removed and the fixed cells gently rinsed twice with 1 mL of PBS.
Staining was performed using 1 mL of Giemsa stain (modified solution; Sigma-Aldrich, St. Louis, MO, USA, CAS No. 32884) diluted 3.5:10 in Milli-Q water. Plates were incubated with the staining solution for 2 h at room temperature. After staining, wells were rinsed twice with Milli-Q water, and plates were inverted on absorbent paper to air-dry.
Colonies were counted manually, with each visible purple-stained cluster considered as one colony. […] Each data point represents the mean ± standard deviation (SD) of four independent experiments, each performed in triplicate.

[2] = human, in vivo, iv; cited from earlier work
Description: Due to disease progression observed at the radiologic follow-up examination during fourth-line treatment with topotecan (Figure 4a–f) and following confirmation of intense tracer uptake on [^68Ga]Ga-DOTA-MGS5 PET/CT, the patient underwent a preliminary dosimetric evaluation with [^177Lu]Lu-DOTA-MGS5 to calculate the absorbed dose to organs at risk and the tumor. After the intravenous administration of 1.5 GBq [^177Lu]Lu-DOTA-MGS5 (corresponding to a peptide dose of less than 100 µg), scintigraphic images were acquired at 30 min, 4 h, 24 h, 72 h and 96 h p.i. (Supplementary Figure S3A). As prev ...

[3] = human, in vivo
Description: For dosimetry, both planar and SPECT/CT imaging were performed at nominal time points of 30 min and 4, 24, 72 and 96 h post-injection (p.i.). The acquisition protocol for the first three time points followed the procedure described above. For the 72 and 96 h scans, the dwell time per projection for SPECT acquisition was increased to 24 s, and the planar scan speed was reduced to 8 cm/min to compensate for the reduced count statistics at later time points. The gamma camera sensitivity was calibrated according to the GE Healthcare-recommended protocol (DICOM Conformance Statement: NM General Purpose 600/800 Series, Rev. 15, 2018). A Petri dish containing a known activity of lutetium-177 was used as the calibration source, yielding a calibration factor of 5.2 cps/MBq. To correct for partial volume effects (PVEs), recovery coefficients (RCs) were determined using an IEC-NEMA phantom with fillable spheres of varying diameters, and a Jaszczak phantom containing a 60 mm sphere (Data Spectrum Corporation, Hillsborough, NC, USA). For each sphere, RCs were calculated, and a logarithmic regression model was fitted to generate a recovery curve. Two selected well-delineable lesions were segmented on 24 h p.i. SPECT images using a 41% isocontour threshold in Affinity 3.0 (Hermes Medical Solutions, Stockholm, Sweden). Subsequently, SUVmax values normalized to body weight were computed and corrected for PVEs using the corresponding RCs. […] (Supplementary Figure S3A). […] Additionally, the mean absorbed dose to the tumor was 12.5 ± 10.2 Gy/GBq (range: 1.2-28 Gy/GBq) across five well-delineated lesions. The time-activity curves for kidneys, stomach wall and two selected lesions were fitted and extrapolated using non-linear regression. […] A tri-exponential function was used for the kidneys, while a bi-exponential model (with k3 = 0) was applied for the stomach wall and the two lesions. […]

A431-CCK2R cells [4] = assay type: cell-based, human; settings: ~250 kBq, 2 nM/well; for relative viability: viability 72 h after treatment, % of non-irradiated control, n = 3
Description: To investigate the cytotoxic effect of [^177Lu]Lu-DOTA-MGS5 on A431-CCK2R cells in comparison with EBRT, cells were counted using a TC20 automated cell counter (Bio-Rad Laboratories, Hercules, CA, USA), seeded at a density of 1 × 10^5 cells per well in 6-well plates and incubated at 37 °C with 5% CO2. After 24 h, cells were irradiated with varying doses (2, 4 and 8 Gy) using a linear accelerator (Elekta Precise, Elekta Oncology Systems, Crawley, England, UK) or by incubation with [^177Lu]Lu-DOTA-MGS5 (~250 kBq, 2 nM/well) for 4 and 24 h followed by replacement with fresh medium. Incubation periods of 4 h and 24 h were selected based on the previously established internalization kinetics and the stability data obtained for [^177Lu]Lu-DOTA-MGS5 [25]. At the time point of 72 h after treatment, cell viability was assessed using a Beckman Coulter Vi-CELL AS cell viability analyzer (Beckman Coulter, Fullerton, CA, USA). The supernatant from each well was collected in 15 mL Falcon tubes. Cells were then washed twice with 1 mL of serum-free medium, and the wash fractions were combined with the respective supernatants. Trypsin (300 µL) was added to each well, and plates were incubated until detachment. Following detachment, 1 mL of medium was added to each well, and cells were rinsed and transferred to their respective Falcon tubes. This washing step was repeated twice, reaching a total volume of 3 mL. Cells were pelleted by centrifugation in a benchtop centrifuge (Megafuge™ 8; Thermo Fisher Scientific, Waltham, MA, USA) at 2000 rpm for 8 min at 4 °C, and the supernatant was discarded. Pellets were resuspended in 1 mL of cold serum-free medium. Samples were loaded into the Vi-CELL AS analyzer according to the manufacturer’s instructions. The number of viable cells in each treatment group was normalized to the mean number of viable cells in the non-irradiated control group and expressed as a percentage of the control.

patient with ED-SCLC = assay type: in vivo, human
Text: A patient diagnosed with SCLC (initial stage: T4 N3 M1b with primary tumor of the left central lung and possible metastasis to the left adrenal gland) completed first-line systemic therapy with carboplatin/etoposide/atezolizumab (schedule: day 1–day 3, every three weeks) followed by maintenance therapy with atezolizumab and prophylactic cranial irradiation (fractions of 2 Gy each, reaching a total dose of 30 Gy; cognitive preservation with memantine). Subsequently, the entire primary tumor region, including the selectively involved lymph nodes on the left central side, was irradiated (fractions of 2 Gy, resulting in a total dose of 60 Gy). After completing EBRT approximately six months after diagnosis, the disease remained stable for the following four months. Ten months after diagnosis, a new metastasis to the right adrenal gland occurred, and re-induction therapy with carboplatin/etoposide/atezolizumab was administered (a total of four cycles; schedule: day 1–day 3, every three weeks). In the follow-up CT scan, progressive disease was identified again, and third-line therapy with cyclophosphamide/doxorubicin/vincristine was initiated (a total of four cycles; schedule: day 1–day 2, every three weeks). […] After 2 cycles, the disease again progressed. This time, there was progression of the primary tumor, liver metastases and new lymph node metastases. Thus, alternative image-guided treatment strategies were evaluated. […] Thus, the patient was considered eligible for PRRT with [^177Lu]Lu-DOTA-MGS5. PRRT was performed under the responsibility of the treating physician and after tumor board approval. According to the Austrian Medicines Act (Arzneimittelgesetz §8), named patient use (“Heilversuch”) was not subject to authorization by or notification to the authorities. Written informed consent was obtained from the patient. All procedures were in accordance with the principles of the 1964 Declaration of Helsinki and its subsequent amendments. The retrospective analysis of the data of the patient was exempted from consultation with the Ethics Committee by the Medical University of Innsbruck.
Adequate hydration was ensured through intravenous infusion of 1000 mL of 0.9% saline solution at a rate of 300 mL/h, starting 30 min before and continuing for 2 h after treatment administration. The patient received prophylactic antiemetic therapy with 4 mg ondansetron, as well as 4 mg dexamethasone and 40 mg pantoprazole, given 20 min before the treatment. Prophylactic antiemetic therapy was repeated 12 h after therapy.
[^177Lu]Lu-DOTA-MGS5 was administered intravenously via a dedicated peristaltic infusion pump system over a period of 15–20 min. The patient was discharged at the third day following therapy. The treatment was repeated approximately every four weeks.
Whole-body SPECT/CT after each therapy cycle was performed using a dual-head SPECT/CT system (NM/CT 870 DR; GE Healthcare, Chicago, IL, USA) approximately 24 h after injection of [^177Lu]Lu-DOTA-MGS5. The acquisition consisted of 60 projections over 360° with an angular step of 6° and a dwell time of 20 s per projection. A medium-energy general-purpose collimator was used. The primary energy window was set to 187.2–228.8 keV and the scatter window to 169.1–186.9 keV. SPECT images were reconstructed using the manufacturer’s proprietary algorithms (OSEM with resolution recovery), using 2 iterations and 10 subsets and no post-reconstruction filtering. The reconstructed matrix size was 128 × 128, with a pixel size of 4.42 mm. Photon scatter correction was performed using the dual energy window method, and attenuation correction was performed using a low-dose CT scan acquired at 120 kVp, 30 mAs effective, with CareDose4D activated. Whole-body planar imaging was performed in anterior and posterior views using the same system. The scan was conducted in supine position, feet-first orientation. The table traversed 1.14 m at a speed of 10 cm/min. […]

[5] = tested on: patients with advanced MTC; settings: human, in vivo; cited from earlier work
Description: So far, ^177Lu-labeled peptides targeting CCK2R have been used for PRRT in patients with advanced MTC. […] In a dose escalation study, six patients with advanced MTC were treated with up to three to four cycles of [^177Lu]Lu-PP-F11N (3 × 6 GBq or 4 × 8 GBq) ...

CCCC[C@@H](C(=O)N[C@@H](CC(=O)O)C(=O)N[C@@H](Cc1cccc2ccccc12)C(N)=O)N(C)C(=O)[C@H](Cc1c[nH]c2ccccc12)NC(=O)CNC(=O)[C@H](Cc1ccc(O)cc1)NC(=O)[C@H](C)NC(=O)[C@@H](CCC(=O)O)NC(=O)CN1CCN(CC(=O)O)CCN(CC(=O)O)CCN(CC(=O)O)CC1 [[^177Lu]Lu-DOTA-MGS5, metal not drawn]
clonogenic survival (A431-CCK2R cells [1]; 2 MBq/well): 54.9 ± 10.9% | clonogenic survival (A431-CCK2R cells [1]; 250 kBq/well): 82.7 ± 6.5% | absorbed dose to the bone marrow [2]: 0.022 Gy/GBq | absorbed dose to the kidneys [2]: 0.28 Gy/GBq | absorbed dose to the stomach [2]: 0.42 Gy/GBq | absorbed dose to the tumor, range [2]: 1.2–28 Gy/GBq | mean absorbed dose to the tumor [2]: 12.5 ± 10.2 Gy/GBq | tracer clearance kinetics, CCK2R-positive stomach wall [3]: slower and more prolonged washout | tracer clearance kinetics, kidneys [3]: rapid initial decline in activity | tracer clearance kinetics, thoracic wall lesion and gastrointestinal tract lesion [3]: gradual mono-exponential decrease in activity | EBRT dose with comparable response (A431-CCK2R cells [4]; 4 h and 24 h incubation, compared with EBRT 2, 4 and 8 Gy): 2-4 Gy | relative viability (A431-CCK2R cells [4]; 4 h incubation): 58.5 ± 3.3% | relative viability (A431-CCK2R cells [4]; 24 h incubation): 55.5 ± 8.3% | change of SUVmax in two well-delineated lesions (patient with ED-SCLC; SPECT 24 h p.i., dosimetry and first three cycles, PVE corrected): only a minor decrease | uptake in new disseminated liver metastases (patient with ED-SCLC; SPECT/CT after the fourth cycle): negative | clinical symptoms (patient with ED-SCLC; after the second administration): improvement | lesion uptake on serial SPECT/CT after each treatment cycle (patient with ED-SCLC; approximately 24 h p.i.): overall stable uptake | follow-up contrast-enhanced CT finding (patient with ED-SCLC; at the fourth cycle of PRRT): continued disease progression | GGT (patient with ED-SCLC; human, in vivo): 74 U/L | GOT (patient with ED-SCLC; human, in vivo): 44 U/L | GPT (patient with ED-SCLC; human, in vivo): 14 U/L | Karnofsky Index (patient with ED-SCLC; human, in vivo): 100% | absorbed dose delivered to the tumor lesions during PRRT, range (patient with ED-SCLC; human, in vivo): 21-482 Gy | absorbed dose of healthy tissue, bone marrow (patient with ED-SCLC; human, in vivo): 0.4 Gy | absorbed dose of healthy tissue, kidneys (patient with ED-SCLC; human, in vivo): 5 Gy | absorbed dose of healthy tissue, stomach (patient with ED-SCLC; human, in vivo): 7 Gy | adverse effect following the first administration (patient with ED-SCLC; human, in vivo): mild nausea | creatinine (patient with ED-SCLC; human, in vivo): 0.64 mg/dL | eGFR (patient with ED-SCLC; human, in vivo): > 60 mL/min/1.73 m^2 | hematological, renal or hepatic toxicities in laboratory tests (patient with ED-SCLC; human, in vivo): no hematological, renal or hepatic toxicities | mean absorbed dose delivered to the tumor lesions during PRRT (patient with ED-SCLC; human, in vivo): 215 Gy | weight loss (patient with ED-SCLC; human, in vivo): approximately 2 kg | NSE levels (patient with ED-SCLC; tumor marker during four administrations): slight reduction after the first three administrations but increased by the fourth administration

DOTA-(DGlu)6-Ala-Tyr-Gly-Trp-Nle-Asp-Phe-NH2 [[^177Lu]Lu-PP-F11N, ^177Lu-labeled CCK2R-targeting agonist]
dose-limiting toxicity [5]: without signs of dose-limiting toxicity | median absorbed tumor dose [5]: 0.88 Gy/GBq

From publication PMC12844804, “Paving the Way for CCK2R-Targeted Peptide Receptor Radionuclide Therapy with [^177Lu]Lu-DOTA-MGS5 in Patients with Small Cell Lung Cancer” (Pharmaceutics, 2026)
